This series can be described thus: soluble on expression in E. coli; label from the status in PepcDB or PDB records.
Regarding “MSLLNSVSAIFLATAMTFAALPQDAQAQDYRFNTVQVDGNQRIETSTIISRMGIERGKTISAGALNDAYQRLLDSGVFETVELIPRGNTLVVKVVEHPTINRINFEGNRRVKDETLEGAIGSQSRRVFTPEQAERDAATIAEIYSTQGRVAATVVPRIIRRSDNRVDLVFEISEGDTIEIERVSFVGNRVFSDRRLRRILETKQAGFLRTFIRSDTFIADRIEFDKQVLRDFYLSRGHVDFRVNSANVEFTRERDAFFLVMDVTEGQQFSFGKITTVSEIPGVEAPAYQDVLKIKPGVVYSPSLVENSIARMERLGLKNGVDFLRVEPRITRNDRDLTLDIEFALVKGPRIFVERIDIEGNTTTLDQVIRRQFRTVEGDPFNPREIRESAERIRALGFFGDANVETREGSTPAQVIVDVDVEEKPTGSLSFGGSYSVSDGFGVAIGLTEDNWLGRGQRLGLTLSTAQDAEQYVLSFTEPQLLGRDLRFDIDLGVANTNSSFASYDTERAFFAPGITFRLGELSTLQLRYRWEASEMVQRTATTVSGAVIASEIAQGKKSSSALGLTYTYDSRIGGLNPNAGVLFEVGVDAAGLGGDNEYFKTSAKAIAQTRVWHEEITLRASLDVGAFTWQGSGFSRAIDRFVIGPNTFRGFEPAGVGPRDQSNGVDDAIGGNYYAVARFEAEFPLGLPEELGLRGGLFYDVGNVWDVSDVNTAGGTIVGADGSFRHVIGFSLLWTTAFGPLRFNFSKALKKETFDKEQSFDLTIQAREGHHHHHH”, the “soluble on expression in E. coli” value is recorded as “not soluble”.

Turning to “MSLLRETLESGKFAVTTEMAPPKGTDLSHLIECAKPLVGRVHAANVTDFQSAVMRATSLATCKLLKDAGLEPVIQITGRDRNRIAIQGEMLSAGVFGINNLLALTGDHTSVGDHPQAKGVFDLDSVGILQTAETLMAGTDMAGNKLKGSPDFYLGASVTPEYSPIEVQLLKMKKKIKAGAKFFQTQALYDINTMRKFRELTRDMDCKVLAGIVPLKSPGMAKFMTANVPGIFVPDEQIERLRAAGKENWVSEGIKMAGELIKQLKEEDLCDGVHIMAIGAEENIPAILDAAGL”, the “soluble on expression in E. coli” value was “not soluble”.

Consider “MSLLRIRQPKSETVRQFLQTQASRDFSYPMVGATLATPPSEYQVDHTRVRLGHGEESLAQGRIALQKWTQFQLGWVTTFPPALPIQAGEMVAIVARAGGFWWLNACRIVCTIEEPKQFGFAYGTLPAHAESGEERFLIEMDDAGDVWYDILAFSRPNRVSAKLAYPYMRHLQKRFARESAAAMRQAIRPEGHHHHHH”, for which the “soluble on expression in E. coli” value is “soluble”.

With “MSLLSKDIKLLPGSKVEVVIRVSKNVIQEKYNSLLQDYSSRLKIQGFRIGKVPINVIENKYSEGLKATVLEEVINNSFKEFFKEESKIPLSYATPTVKEKNLKLNLDKDFEFTFTYETYPEFKIPSFDEIDIKVEIPEVFIDDSDIDDEIKNLQIENSIIIEDEEGVVKEDSIVKVDFVELDDLSNEIVSTKRQGFVFTVGKSETYYDFDKDVIGMRINEERVIEKSYIADYKFEELAGSSRKLKIKIKSIKKRDLPLIDDEFAQDISDKYNTLDDLKNFIRSSLLNIVEEKKETLKLNKFFSTISEKLEIDIPHSMIEAEIEIAFKDAKRQNKNNMSLEEFKSIFYSSGYIGGDNLKDEILGNLKSKLIMQKMVDLDPIKVTESDVEDEMARQSKNLGVSYEEIKKFYEDQNLISYLKDDIKRERAKKKILENLKEVKGKKLNFRDFVNYKIEGHHHHHH”, the “soluble on expression in E. coli” value is “soluble”.

As to “MSLLSKVVTQIKGFLHDSVDKASDDGRTARQLIRDVGENEEKIKEALVESRSQAIISKQKVEDKQSAIALSKKRAAKAVELDKEDLARTILVEKRQQESDLAALQNQQAKFDNIVVTLTSRFNDIQKKRSEMERKADSIDLRSKVAAATEEATKLLDVGNFASYDSASKVFDRLEDNIAKKEAKSQARGEFIDAEKDKQDELVSLDRHGLDESIEDELAALRAMNKKQELEHHHHHH”, the “soluble on expression in E. coli” value was “not soluble”.

As for “MSLLTLAFNPQPRAKTYCSGPILRVSGVWAVKILYIVLDGAADSPTSPRKTLEEASKPNIDSLGSHAVCGMVYTVKPGVAPQSDYATLSLLGYNPDEYYPGRGPLEAFGAGIEMRRGDIALRANFATVDPGTLRIIDRRVGRSLTSREARELASAVDGMELEDGEGTALFRATIGHRGVLVLRHRSKPLSDAISNTDPAYERRGRFSVALEKYEPFIKLSNPLVEDEAAVLAARMLNEFTLKAVEILDSHPVNLAREKRGLLKANAILSRDAGGLPEEKPPSFQERFGLRGASIVEMVVERGISRYIGLDDIRVEIEGRAREEVYREEAARAVEALETHDLVYVHLKGPDEPGHDGSFEGKIRAVEDIDKHFFAPLLDRLSSAGLEPAFVVTSDHATPWDVGAHSGDPVPLMISHQSIQGSIGKFSETVCLRGRLGTIIGGYRIIPKTLSLLAGLEHHHHHH”, the “soluble on expression in E. coli” value is given as “soluble”.

In the case of “MSLNAIARQEPFDLNDPALRARAVAAARGDAPFDMLITGGRLLDAVTGLIREADIGLVGALIASVHAPASRTDAVEIIDATGGILTPGLIDMHMHVESSMVTPAEYASAVLPHGVTTVVWDPHEFGNVQGLDGVRWAIEAARTLPLRMILLAPSCVPSAPGLELAGADFDAAVIAEMLRSPAVGGVAEVMNMRGVIDGDPRMSAIVNSGLASGKLVCGHARGLTGADLNAFMAAGVTSDHELTSGADLAAKLSAGLTIELRGSHDHLLQEFVEVLNGLGHLPATVTLCTDDVFPDELYQSGGLDEVARRLVRYGMKPEWALRAATFNAAQRLKRSDLGLVASGRRADLVLFEDLTELRARLVISDGRIVARNGSMEAAVQPLDTAPLINSTKLPPLTESDFRVPAKGARVRIATIDRPRFTQWGEAETEIRDGFVVPPAGSAMIAVAHRHGKAGGTPRIGFLTGWGEWRGAFCTTVSHDSHNLTVFGGDARDMALAANAVIKAGGGLAVAKDGAIQAILPLPLSGLVTDASLKDTASAFSDIRKAMDKIVDWKPPYRVFKACFGATLACNAGPHQTDRGIADVTTGKVLESPVLEIEGHHHHHH”, the “soluble on expression in E. coli” value is “soluble”.

Consider “MSLNALDPHDALPWIEETTALELSPSQRSAVTLVLASKVSIITGGPGVGKTTILKAILSVLQREKVSVALCAPTGRAAKRLTESTGIEAKTIHRLLEFDPQAFDFKRGRGNPLDASFVVVDETSMVDVVLMQKLVAAIPDHAAVVFVGDVDQLPSVGPGAVLADMISSEAIPTVRLTEIFRQAAESMIVVNAHRINQGDMPLTAEGEELSDFYVVKAASAEEIHDKVIQLVTERIPKRFGLDAVKDVQVLTPMNKGGVGVHALNAELQAKLNPASEPKVTRFGTTFAPGDKVIQTVNNYDKEVFNGDIGLIEAIDPEAEIATAFFFDHHRAEYDFNDLDELSLAYATSIHKSQGSEYPAVVIPLAMQHFTLLERNLIYTAVTRGRKLVVIVAEPKALTLAIKNCKSKRRLTGLVQRLRESGKQSWQNEGHHHHHH”, for which the “soluble on expression in E. coli” value is given as “soluble”.

For the sequence “MSLNASSISSRFKDLFVTPSIVFDFDGTLAIGHGPVLAYALCVAPEGSKDFLERVRRELRRYDDGQSIYRDGYDIVAKLASELGIDDGTMSVAYGESRKLLGSDLAPVEHVRGIKDILSSLKGHARLVLATNAPENGVHDLLRQWGVADLFDQLHFVVGKPAGLISIISDLQLDGPVLAVGDIYEFDLSPAAQLGADTALVGATATISEAKVSMRGDSIADLPLLAWVSSRVSSEGHHHHHH”, the “soluble on expression in E. coli” value is recorded as “soluble”.

As for “MSLNCTLDELRQRIEAHRPRQLDTDQRFPQAAVLVPITRSDDPELVLTLRAAGLSTHGGEVAFPGGRRDPEDADLVRTALREAEEEIALPPGLVEVVGPLSTLVSRHGIEVTPYVAFIPDFVEYQPNDGEIAAVFNVPLSFFRDDPREVTHRIDYFGRSWYVPSYRFGEFKIWGLTAIMVVELVNLLYDDPIDLHTPPASFIKLSEGGSHHHHHH”, the “soluble on expression in E. coli” value is “soluble”.

For the sequence “MSLNEHDIYMQDFMTVFASLQHWGPGSEQDSLKAISLMSMQNMQHILDIGCETGLSTLLLAENSSAHITAVDNEPIAIEQLEKQRQHSPWKEQISPVLGSMTALPFAAKSFDAIWAEGCVYIMGMENALKQWKPFLADNAILMVSDLVWLTENPKPEAQEFWQSEYPDIQSIPSRIKLFKKLGYEVMEHFSLGIDAWQNYWLPLQNRVQELKLRLTNSQALSDIEKEIAIYERSAAKDFTYQYFVLKLNHEGHHHHHH”, the “soluble on expression in E. coli” value is listed as “not soluble”.

In the case of “MSLNEKVALVTGASRGIGFEVAHALASKGATVVGTATSQASAEKFENSMKEKGFKARGLVLNISDIESIQNFFAEIKAENLAIDILVNNAGITRDNLMMRMSEDEWQSVINTNLSSIFRMSKECVRGMMKKRWGRIISIGSVVGSAGNPGQTNYCAAKAGVIGFSKSLAYEVASRNITVNVVAPGFIATDMTDKLTDEQKSFIATKIPSGQIGEPKDIAAAVAFLASEEAKYITGQTLHVNGGMYMA”, the “soluble on expression in E. coli” value is on record as “soluble”.

“MSLNELPEFEDYVVLTQQQNQNYKIVQQFNNFDKAILLGTSTFFEGFDFQANGIKCVMIAKLPFMNKHNAKYWLMDSEFTSTFKEYVLPDAVTRFRQGLGRLIRNENDRGIIVSFDDRLINSNYKNFFEQTLENYRQKKGDIQQFGKLLRQIQKEGHHHHHH”: the “soluble on expression in E. coli” value is “not soluble”.

As to “MSLNFDFAENDFRPLAARMRPRTLDEYCGQQHLIGQGKPLRRAIESGHAHSMILWGPPGTGKTTLAEIIAYRINAEVERLSAVTSGVKDIREAIERAKRNRLADRQTILFVDEVHRFNKSQQDAFLPHIEDGTIIFIGATTENPSFELNNALLSRTRVYILKSLTTADVQRVLQQAVADEERGLGKARLNLQANLLHLLAEYVNGDARLALNCLELMADMAEEDENGKKIDRTLLTEVLGERQARFDKGGDRFYDLISAVHKSIRGSAPDAALYWYARIITAGGDPLYVARRLLAIASEDIGNADPRAMQVALSAWDCFTRVGAAEGERAIAQAIVYLAVAPKSNAVYQAFNAAKALAKQAPDYDVPRHLTNAPTQLLKELGNHAEYRYAHDEPNAYAAGENYFPEPLKDTRFYFPGARGMEIKIKEKLDWLRNLDQQSENIREGHHHHHH”, the “soluble on expression in E. coli” value was “not soluble”.

Take “MSLNFEYIINSLLETIKTYNFFVDWEKIENNIKKIEKRLHILNYLIGKENFKEEFFELLKEYPEVITVFPILIAVRDNKITILNENMELETLEFKEKKYLTDEEIERYYKFFKETGLEDLLKNRKIKNLVDYVFGVEVGMDTNARKNRIGDLMENIVKKYIENLCKQNKNLDYIFQATKDKIKQKWGINLTLDKTNRKFDFAVFNKNTKKLYLIEVNFYSGGGSKLKATAGEYRSLNEFIKNNNNNVQFIWITDGKGWNTAKNPLKESFNSGVVILNLKMVKEGLLKEILTQEGHHHHHH”: the “soluble on expression in E. coli” value is “soluble”.

Turning to “MSLNFLEFEKPIAELEAKIEALRDVSRHGGDSAIDLDKEIEQLEKKSLELKKKIFSDLGAWETAQLARHPLRPYTLDYVQHVFEEFDELAGDRAFADDKAIVGGIARLEGRPVMIIGHQKGRETKEKVRRNFGMPKPEGYRKALRLMEMAERFNMPIITFIDTAGAYPGVGAEERGQSEAIAKNLKVMSGLKVPVICNVVGEGGSGGALAIGVGDYVNMLQYSTYSVISPEGCASILWRDSDKAPQAAEAMGLTAPRLKELELIDEIIEEPLGGAHRDHVKMAENMKATLLRQLEDLEQLDEESLRERRYQRLMNYGYC”, the “soluble on expression in E. coli” value is reported as “not soluble”.

Regarding “MSLNFYYATSILIKEVVVSTKWLLGISLMLSTVAQANENSNQDTDISIPSPWKHQVEFGYQAHSGNTESESLNSRLKSEYTMGRHRTYGEWKFYKLDKNGKEDKRQSTFAFQSDYKLGPKTYLYGSFYGTNSRYTAYFKDHTLSGGLGYQFAYTDEMVLELELGPGFRYQKPNLDEIDDDDIVFPDLVQEAIFRSNLKAEWQALNNLRFEAEMTMVSGRSNTSLDSNISLTNDITDHIALKIRQSRQYHNRMPEGLSKADSVISVNLLFEFEGHHHHHH”, the “soluble on expression in E. coli” value was “not soluble”.

The record behind these values is the DeepSol protein solubility set.
